1 protein from paper PMC8065580, “A Lipid Bodies-Associated Galactosyl Hydrolase Is Involved in Triacylglycerol Biosynthesis and Galactolipid Turnover in the Unicellular Green Alga Chlamydomonas reinhardtii” (Plants, 2021) can be followed below.

Substrate in the data set: O=[N+]([O-])c1ccccc1O[C@@H]1O[C@H](CO)[C@H](O)[C@H](O)[C@H]1O
Briefly: purified protein. The format is biochemical, Chlamydomonas reinhardtii. The settings on record: 30 mM magnesium chloride buffer, pH 7.3, 37 °C, MBP fusion.

B1: CrGH (Chlamydomonas reinhardtii) (protein)
chain: MTGSGKPAANKATANGDGEPVRFLKGAAISVWQNSGDDDSNWTRFAKSRWPFRSFGVSAIRGKYNIDKCSDFWNNYERDIKLAADIGSTTFRFSIEWARIEPLRGVFDMEAVHRYHQMLDCMAAHGLVPNATLWHFVHPTWFEQAGGWTKEENIPAFVRFSVKCFEWFKDKITLWATFNEPTCYMFLAFIVGIAPPGRIMDLVTAGRMLSTMLKAHTATYRAIKAAPGGQAAQVGLVSHHITFEPQGTGILYGVSKVLSDWMTYWWGWDVVHHWMLTGEFVWKLPVLGVWQRWQDPAGRPPCDWWGINYYSRGIFSWYLAPSCRESEVMTDMYYPIYPEGLYKCIKRCSEFGIPMYITETGIADARDDRRALMIDSYMKATLRAVAEGCDVRGLYYWTLLDNLEWATGYTMKFGLYAWEPDGSVDRKLKEGSKTLVRYFKTLPDDLAGVRAAARQVQGQLGEDLGVEAALEEEGVTRVAAGGKLVVGEAAGKGGEAEGRKAVGMVAIG
notes: full-length CDS (1527-bp ORF, about 508 residues) in pMAL-c5x, MBP fusion, about 98 kDa, E. coli BL21(DE3), amylose resin; tag cleavage not mentioned; GH family 1, motifs TFNEP and ITETG
In general, Km refers to the substrate concentration at which the rate is half of its maximum. For orientation: kcat means the number of substrate molecules converted per active site and unit of time at saturation. B1: the Michaelis-Menten constant (Km) was 13.98 µM and the kcat was determined as 3.62 s⁻¹.
